From US20210214414A1 (Pfizer, published 2021)

Experiments:
[1] = biological target: T1, Human SLIT2-N (human, UniProt O94813 31-1121, limits assumed); test: flow cytometry, AF647-labelled ROBO2-Fc 2.2 on HEK293 cells overexpressing human SLIT2-N
T1 construct: domain: SLIT2-N (N terminal fragment); Soluble analyte in SPR, d2-labelled in HTRF, overexpressed on HEK293 cells in flow cytometry; also called human SLIT2-N (N terminal fragment)
T1 sequence (looked up): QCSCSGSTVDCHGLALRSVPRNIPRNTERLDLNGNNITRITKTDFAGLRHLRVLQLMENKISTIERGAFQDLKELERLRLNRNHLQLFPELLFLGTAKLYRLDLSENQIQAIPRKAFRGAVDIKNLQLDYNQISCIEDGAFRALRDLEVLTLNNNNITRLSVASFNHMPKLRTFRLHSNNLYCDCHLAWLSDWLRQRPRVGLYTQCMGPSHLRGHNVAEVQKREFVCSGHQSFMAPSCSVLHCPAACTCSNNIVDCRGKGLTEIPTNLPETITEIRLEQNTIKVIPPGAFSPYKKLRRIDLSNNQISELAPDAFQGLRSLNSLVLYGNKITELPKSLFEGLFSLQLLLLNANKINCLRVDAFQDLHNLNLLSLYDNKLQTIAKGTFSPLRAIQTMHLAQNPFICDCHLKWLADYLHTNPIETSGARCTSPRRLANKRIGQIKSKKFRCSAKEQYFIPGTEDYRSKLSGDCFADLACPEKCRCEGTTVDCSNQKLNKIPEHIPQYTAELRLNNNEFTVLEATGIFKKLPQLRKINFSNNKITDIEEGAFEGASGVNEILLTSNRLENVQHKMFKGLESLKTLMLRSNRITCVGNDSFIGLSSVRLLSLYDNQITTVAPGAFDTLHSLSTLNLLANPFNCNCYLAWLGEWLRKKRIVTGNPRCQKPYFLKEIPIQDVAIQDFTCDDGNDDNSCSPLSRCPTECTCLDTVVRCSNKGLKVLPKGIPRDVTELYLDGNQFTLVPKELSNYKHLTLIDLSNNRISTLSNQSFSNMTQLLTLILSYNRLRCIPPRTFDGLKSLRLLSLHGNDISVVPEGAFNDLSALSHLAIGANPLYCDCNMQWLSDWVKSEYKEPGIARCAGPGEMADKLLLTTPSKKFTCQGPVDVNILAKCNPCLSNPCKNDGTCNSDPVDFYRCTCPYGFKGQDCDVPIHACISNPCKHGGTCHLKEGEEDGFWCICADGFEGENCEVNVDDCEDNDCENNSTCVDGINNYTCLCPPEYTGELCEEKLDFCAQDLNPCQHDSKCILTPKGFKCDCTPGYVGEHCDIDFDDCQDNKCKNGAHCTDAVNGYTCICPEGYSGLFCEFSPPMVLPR
Protocol: After incubation, 150 μL of FACS buffer was added per well to wash the cells. After washing, cells were resuspended in buffer for data acquisition on a Fortessa Flow Cytometer.

[2] = biological target: T2, Mouse SLIT3-N (mouse, UniProt Q9WVB4 34-1119, limits assumed); test: HTRF competition: d2-labelled mouse SLIT3-N binding to human ROBO2 on HEK293 cells; geometric mean, n=3
T2 construct: domain: SLIT3-N; d2-labelled in the HTRF assay
T2 sequence (looked up): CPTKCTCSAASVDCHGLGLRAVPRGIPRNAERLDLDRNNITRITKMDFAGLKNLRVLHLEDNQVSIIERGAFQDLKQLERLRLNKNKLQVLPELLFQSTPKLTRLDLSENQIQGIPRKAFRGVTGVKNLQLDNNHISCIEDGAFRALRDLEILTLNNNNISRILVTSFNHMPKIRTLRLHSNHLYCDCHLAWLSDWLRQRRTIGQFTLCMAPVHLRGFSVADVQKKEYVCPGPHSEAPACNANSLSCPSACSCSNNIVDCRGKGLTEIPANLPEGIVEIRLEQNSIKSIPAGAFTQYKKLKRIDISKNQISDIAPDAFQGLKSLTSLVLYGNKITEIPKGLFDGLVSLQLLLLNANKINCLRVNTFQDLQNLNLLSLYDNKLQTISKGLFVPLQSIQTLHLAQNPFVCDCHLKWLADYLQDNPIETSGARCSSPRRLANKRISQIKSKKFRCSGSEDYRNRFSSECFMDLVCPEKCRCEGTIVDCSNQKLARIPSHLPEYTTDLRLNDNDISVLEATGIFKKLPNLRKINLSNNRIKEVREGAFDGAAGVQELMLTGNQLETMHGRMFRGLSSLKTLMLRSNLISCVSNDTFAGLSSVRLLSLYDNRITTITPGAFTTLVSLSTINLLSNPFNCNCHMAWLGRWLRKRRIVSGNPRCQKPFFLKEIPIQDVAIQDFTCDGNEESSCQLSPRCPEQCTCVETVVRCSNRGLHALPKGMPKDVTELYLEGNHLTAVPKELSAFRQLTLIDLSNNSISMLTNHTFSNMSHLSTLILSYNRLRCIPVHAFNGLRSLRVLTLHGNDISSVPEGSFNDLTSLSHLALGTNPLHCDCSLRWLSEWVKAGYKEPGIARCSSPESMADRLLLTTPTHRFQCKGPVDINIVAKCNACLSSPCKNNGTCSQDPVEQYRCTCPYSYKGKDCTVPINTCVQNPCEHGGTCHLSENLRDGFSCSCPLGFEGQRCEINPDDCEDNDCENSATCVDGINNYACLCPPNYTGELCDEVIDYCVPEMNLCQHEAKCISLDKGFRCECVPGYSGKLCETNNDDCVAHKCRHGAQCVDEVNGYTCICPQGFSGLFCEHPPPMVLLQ
Protocol: After incubation, fluorescence at 665 nm and 620 nm was measured on an Envision multilabel plate reader. The HTRF Ratio was calculated as follows: fluorescence at 665 nm/fluorescence at 620 nm×10,000. […] The IC₅₀ for each SLITx-N was determined using an 11-point, 4-fold dilution series with a top concentration of 4000 nM.

EC50 [1]: 8.6 nM
IC50 [2]: 4.3 nM
B1: ROBO2-Fc 2.2 (Fc fusion)
chain: SRLRQEDFPPRIVEHPSDVIVSKGEPTTLNCKAEGRPTPTIEWYKDGERVETDKDDPRSHRMLLPSGSLFFLRIVHGRRSKPDEGSYVCVARNYLGEAVSRNASLEVALLRDDFRQNPTDVVVAAGEPAILECQPPRGHPEPTIYWKKDKVRIDDKEERISIRGGKLMISNTRKSDAGMYTCVGTNMVGERDSDPAELTVFERGGSGGSEPKSSDKTHTCPPCPAPEAAGAPSVFLFPPKPKDTLMISRTPEVTCVVVDVSHEDPEVKFNWYVDGVEVHNAKTKPREEQYNSTYRVVSVLTVLHQDWLNGKEYKCKVSNKALPAPIEKTISKAKGQPREPQVYTLPPSREEMTKNQVSLTCLVKGFYPSDIAVEWESNGQPENNYKTTPPVLDSDGSFFLYSKLTVDKSRWQQGNVFSCSVMHEALHNHYTQKSLSLSPG
notes: Labelled with Alexa Fluor 647 in the flow cytometry assay; also called ROBO-Fc 2.2; ROBO2-Fc 2.2-AF647
